Test results reported in patent US20180264123A1 (UNIVERSITY OF MIYAZAKI, published 2018).
Bridge positions count the residues as written; N and C are the ends. Xyl‑4‑branched CH3O‑PEG (40k)‑CH2 = xylose skeleton-containing 4-branched CH3O-PEG (40k)-CH2 (alkylamine-linked PEG, 40k)

B1: CH3O-PEG (10k)-(CH2)2-CH2-^αNH-(h.AM (1-52)) (peptide)
peptide: {CH3O‑PEG (10k)‑(CH2)2‑CH2‑}-YRQSMNNFQGLRSFGCRFGTCTVQKLAHQIYQFTDKDKDNVAPRSKISPQGY-NH2
modifications: disulfide 16-21
B2: CH3O-PEG (20k)-(CH2)2-CH2-^αNH-(h.AM (1-52)) (peptide)
peptide: {CH3O‑PEG (20k)‑(CH2)2‑CH2‑}-YRQSMNNFQGLRSFGCRFGTCTVQKLAHQIYQFTDKDKDNVAPRSKISPQGY-NH2
modifications: disulfide 16-21
B3: GL-4-branched CH3O-PEG (40k)-CO-^αNH-(h.AM (1-52)) (peptide)
peptide: {GL‑4‑branched CH3O‑PEG (40k)‑CO‑}-YRQSMNNFQGLRSFGCRFGTCTVQKLAHQIYQFTDKDKDNVAPRSKISPQGY-NH2
modifications: disulfide 16-21
B4: GL-2-branched CH3O-PEG (80k)-CH2-^αNH-(h.AM (1-52)) (peptide)
peptide: {GL‑2‑branched CH3O‑PEG (80k)‑CH2‑}-YRQSMNNFQGLRSFGCRFGTCTVQKLAHQIYQFTDKDKDNVAPRSKISPQGY-NH2
modifications: disulfide 16-21
B5: CH3O-PEG (30k)-(CH2)2-CH2-^αNH-(h.AM (1-52)) (peptide)
peptide: {CH3O‑PEG (30k)‑(CH2)2‑CH2‑}-YRQSMNNFQGLRSFGCRFGTCTVQKLAHQIYQFTDKDKDNVAPRSKISPQGY-NH2
modifications: disulfide 16-21
B6: CH3O-PEG (20k)-CO-^αNH-(h.AM (1-52)) (peptide)
peptide: {CH3O‑PEG (20k)‑CO‑}-YRQSMNNFQGLRSFGCRFGTCTVQKLAHQIYQFTDKDKDNVAPRSKISPQGY-NH2
modifications: disulfide 16-21
B7: GL-3-branched CH3O-PEG (50k)-CH2-^αNH-(h.AM (1-52)) (peptide)
peptide: {GL‑3‑branched CH3O‑PEG (50k)‑CH2‑}-YRQSMNNFQGLRSFGCRFGTCTVQKLAHQIYQFTDKDKDNVAPRSKISPQGY-NH2
modifications: disulfide 16-21
B8: GL-2-branched CH3O-PEG (60k)-CH2-^αNH-(h.AM (1-52)) (peptide)
peptide: {GL‑2‑branched CH3O‑PEG (60k)‑CH2‑}-YRQSMNNFQGLRSFGCRFGTCTVQKLAHQIYQFTDKDKDNVAPRSKISPQGY-NH2
modifications: disulfide 16-21
B9: Lys-2-branched CH3O-PEG (40k)-CH2-^αNH-(h.AM (1-52)) (peptide)
peptide: YRQSMNNFQGLRSFGCRFGTCTVQKLAHQIYQFTDKDKDNVAPRSKISPQGY
modifications: N-terminal α-amino group alkylamine-linked to lysine skeleton-containing 2-branched CH3O-PEG (40k)-CH2-; Cys16-Cys21 disulfide; C-terminal amide
B10: CH3O-PEG (40k)-(CH2)2-CH2-^αNH-(h.AM (1-52)) (peptide)
peptide: {CH3O‑PEG (40k)‑(CH2)2‑CH2‑}-YRQSMNNFQGLRSFGCRFGTCTVQKLAHQIYQFTDKDKDNVAPRSKISPQGY-NH2
modifications: disulfide 16-21
B11: Xyl-4-branched CH3O-PEG (40k)-CH2-^αNH-(h.AM (1-52)) (peptide)
peptide: {Xyl‑4‑branched CH3O‑PEG (40k)‑CH2}-YRQSMNNFQGLRSFGCRFGTCTVQKLAHQIYQFTDKDKDNVAPRSKISPQGY-NH2
modifications: disulfide 16-21
B12: GL-2-branched CH3O-PEG (40k)-CO-^αNH-(h.AM (1-52)) (peptide)
peptide: {GL‑2‑branched CH3O‑PEG (40k)‑CO‑}-YRQSMNNFQGLRSFGCRFGTCTVQKLAHQIYQFTDKDKDNVAPRSKISPQGY-NH2
modifications: disulfide 16-21
B13: CH3O-PEG (20k)-(CH2)5-CO-^αNH-(h.AM (1-52)) (peptide)
peptide: {CH3O‑PEG (20k)‑(CH2)5‑CO‑}-YRQSMNNFQGLRSFGCRFGTCTVQKLAHQIYQFTDKDKDNVAPRSKISPQGY-NH2
modifications: disulfide 16-21
B14: GL-4-branched CH3O-PEG (40k)-CH2-^αNH-(h.AM (1-52)) (peptide)
peptide: {GL‑4‑branched CH3O‑PEG (40k)‑CH2‑}-YRQSMNNFQGLRSFGCRFGTCTVQKLAHQIYQFTDKDKDNVAPRSKISPQGY-NH2
modifications: disulfide 16-21
B15: GL-2-branched CH3O-PEG (20k)-CO-^αNH-(h.AM (1-52)) (peptide)
peptide: {GL‑2‑branched CH3O‑PEG (20k)‑CO‑}-YRQSMNNFQGLRSFGCRFGTCTVQKLAHQIYQFTDKDKDNVAPRSKISPQGY-NH2
modifications: disulfide 16-21
B16: GL-2-branched CH3O-PEG (40k)-CH2-^αNH-(h.AM (1-52)) (peptide)
peptide: {GL‑2‑branched CH3O‑PEG (40k)‑CH2‑}-YRQSMNNFQGLRSFGCRFGTCTVQKLAHQIYQFTDKDKDNVAPRSKISPQGY-NH2
modifications: disulfide 16-21
B17: CH3O-PEG (5k)-(CH2)5-CO-^αNH-(h.AM (1-52)) (peptide)
peptide: {CH3O‑PEG (5k)‑(CH2)5‑CO‑}-YRQSMNNFQGLRSFGCRFGTCTVQKLAHQIYQFTDKDKDNVAPRSKISPQGY-NH2
modifications: disulfide 16-21

Biological target: AM receptor
Experiment: cell-based or functional assay

| Binder | Intracellular cAMP concentration-increasing effect (%) vs h.AM (1-52); 10^-8 mol/L, HEK293 cells [%] |
| --- | --- |
| B1 | 101 |
| {GL‑2‑branched CH3O‑PEG (20k)‑CO‑}-CRFGTCTVQKLAHQIYQFTDKDKDNVAPRSKISPQGY-NH2 (disulfide 1-6) [GL-2-branched CH3O-PEG (20k)-CO-^αNH-(h.AM (16-52))] | 96 |
| {CH3O‑PEG (20k)‑(CH2)2‑CH2‑}-LRSFGCRFGTCTVQKLAHQIYQFTDKDKDNVAPRSKISPQGY-NH2 (disulfide 6-11) [CH3O-PEG (20k)-(CH2)2-CH2-^αNH-(h.AM (11-52))] | 97 |
| {CH3O‑PEG (20k)‑(CH2)2‑CH2‑}-CRFGTCTVQKLAHQIYQFTDKDKDNVAPRSKISPQGY-NH2 (disulfide 1-6) [CH3O-PEG (20k)-(CH2)2-CH2-^αNH-(h.AM (16-52))] | 97 |
| B2 | 100 |
| B3 | 85 |
| {CH3O‑PEG (5k)‑(CH2)2‑CH2‑}-NNFQGLRSFGCRFGTCTVQKLAHQIYQFTDKDKDNVAPRSKISPQGY-NH2 (disulfide 11-16) [CH3O-PEG (5k)-(CH2)2-CH2-^αNH-(h.AM (6-52))] | 90 |
| B4 | 94 |
| {CH3O‑PEG (5k)‑(CH2)2‑CH2‑}-LRSFGCRFGTCTVQKLAHQIYQFTDKDKDNVAPRSKISPQGY-NH2 (disulfide 6-11) [CH3O-PEG (5k)-(CH2)2-CH2-^αNH-(h.AM (11-52))] | 80 |
| B5 | 100 |
| {CH3O‑PEG (5k)‑(CH2)2‑CH2‑}-CRFGTCTVQKLAHQIYQFTDKDKDNVAPRSKISPQGY-NH2 (disulfide 1-6) [CH3O-PEG (5k)-(CH2)2-CH2-^αNH-(h.AM (16-52))] | 39 |
| B6 | 100 |
| B7 | 80 |
| B8 | 99 |
| B9 | 102 |
| {GL‑2‑branched CH3O‑PEG (20k)‑CO‑}-LRSFGCRFGTCTVQKLAHQIYQFTDKDKDNVAPRSKISPQGY-NH2 (disulfide 6-11) [GL-2-branched CH3O-PEG (20k)-CO-^αNH-(h.AM (11-52))] | 104 |
| B10 | 101 |
| B11 | 81 |
| B12 | 87 |
| B13 | 67 |
| {GL‑2‑branched CH3O‑PEG (20k)‑CO‑}-NNFQGLRSFGCRFGTCTVQKLAHQIYQFTDKDKDNVAPRSKISPQGY-NH2 (disulfide 11-16) [GL-2-branched CH3O-PEG (20k)-CO-^αNH-(h.AM (6-52))] | 99 |
| {GL‑4‑branched CH3O‑PEG (40k)‑CO‑}-NNFQGLRSFGCRFGTCTVQKLAHQIYQFTDKDKDNVAPRSKISPQGY-NH2 (disulfide 11-16) [GL-4-branched CH3O-PEG (40k)-CO-^αNH-(h.AM (6-52))] | 83 |
| B14 | 95 |
| B15 | 99 |
| B16 | 96 |
| {GL‑2‑branched CH3O‑PEG (40k)‑CH2‑}-NNFQGLRSFGCRFGTCTVQKLAHQIYQFTDKDKDNVAPRSKISPQGY-NH2 (disulfide 11-16) [GL-2-branched CH3O-PEG (40k)-CH2-^αNH-(h.AM (6-52))] | 77 |
| {GL‑2‑branched CH3O‑PEG (40k)‑CO‑}-CRFGTCTVQKLAHQIYQFTDKDKDNVAPRSKISPQGY-NH2 (disulfide 1-6) [GL-2-branched CH3O-PEG (40k)-CO-^αNH-(h.AM (16-52))] | 61 |
| B17 | 81 |
